Data reported in patent US20190218308A1 (INNATE PHARMA, published 2019).

Legend:
[1] = target: T1, Human CD39-L2, also known as NTPDase6 or ENTPD6 (human, UniProt O75354 61-484, limits assumed); assay: ELISA on coated recombinant human CD39-L2 (panel huCD39 L2)
T1 construct: Recombinant protein coated in ELISA
T1 sequence: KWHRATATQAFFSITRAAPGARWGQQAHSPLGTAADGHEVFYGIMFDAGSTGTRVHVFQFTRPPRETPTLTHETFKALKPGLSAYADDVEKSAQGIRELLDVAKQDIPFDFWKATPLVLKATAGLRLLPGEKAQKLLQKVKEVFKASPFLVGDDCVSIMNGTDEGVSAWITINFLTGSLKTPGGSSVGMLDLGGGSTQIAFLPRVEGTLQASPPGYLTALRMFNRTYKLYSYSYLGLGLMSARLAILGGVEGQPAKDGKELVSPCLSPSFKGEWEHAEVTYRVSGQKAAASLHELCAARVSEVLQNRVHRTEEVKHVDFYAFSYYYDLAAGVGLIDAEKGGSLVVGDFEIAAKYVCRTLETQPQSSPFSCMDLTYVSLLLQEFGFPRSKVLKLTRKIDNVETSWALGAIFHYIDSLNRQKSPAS
Experimental: Wells were washed in TBS Tween 20, and further saturated 2H at RT in TBS Blocking buffer. Dose range concentration of primary antibody was incubated in TBS blocking buffer for 2 h at RT. Wells were washed in TBS Tween 20. […] Optical density was measured on Enspire™ at OD=450.

[2] = target: T2, human CD39 (NTPDase1, ENTPD1), membrane-bound, on cells (human, UniProt P49961 1-510); assay: flow cytometry titration on CHO cells expressing human CD39 (panel CHO-huCD39)
T2 construct: Expressed on CHO cells, Hek-293T cells (wild type) or endogenous on Ramos cells; also called huCD39; CHO-huCD39
T2 sequence: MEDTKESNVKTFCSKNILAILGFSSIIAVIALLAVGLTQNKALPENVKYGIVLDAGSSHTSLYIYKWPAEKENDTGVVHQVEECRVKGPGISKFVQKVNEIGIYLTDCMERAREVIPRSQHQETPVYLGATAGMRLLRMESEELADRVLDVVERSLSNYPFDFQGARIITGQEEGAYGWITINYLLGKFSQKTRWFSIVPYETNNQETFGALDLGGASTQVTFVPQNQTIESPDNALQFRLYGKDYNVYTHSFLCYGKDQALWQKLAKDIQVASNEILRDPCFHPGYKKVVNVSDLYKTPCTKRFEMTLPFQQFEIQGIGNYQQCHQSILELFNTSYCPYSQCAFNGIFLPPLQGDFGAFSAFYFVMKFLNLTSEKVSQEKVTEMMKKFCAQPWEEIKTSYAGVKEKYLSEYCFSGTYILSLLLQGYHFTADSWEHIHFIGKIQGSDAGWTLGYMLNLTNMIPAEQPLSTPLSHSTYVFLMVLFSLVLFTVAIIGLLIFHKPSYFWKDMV
Experimental: (§1) Cells were incubated with various concentration of unlabeled anti-CD39 antibody from 30 μg/ml to 5×10⁻⁴ μg/ml, for 30 minutes at 4° C. After washes, cells were incubated with Goat anti-mouse H+L labeled secondary antibody for 30 min at 4° C.

[3] = target: T3, murine CD39 on CHO cells (murine, UniProt P55772 1-510); assay: flow cytometry titration on CHO cells expressing murine CD39 (panel CHO-moCD39)
T3 construct: whole, on cells; also called CHO-moCD39; mouse CD39
T3 sequence (looked up): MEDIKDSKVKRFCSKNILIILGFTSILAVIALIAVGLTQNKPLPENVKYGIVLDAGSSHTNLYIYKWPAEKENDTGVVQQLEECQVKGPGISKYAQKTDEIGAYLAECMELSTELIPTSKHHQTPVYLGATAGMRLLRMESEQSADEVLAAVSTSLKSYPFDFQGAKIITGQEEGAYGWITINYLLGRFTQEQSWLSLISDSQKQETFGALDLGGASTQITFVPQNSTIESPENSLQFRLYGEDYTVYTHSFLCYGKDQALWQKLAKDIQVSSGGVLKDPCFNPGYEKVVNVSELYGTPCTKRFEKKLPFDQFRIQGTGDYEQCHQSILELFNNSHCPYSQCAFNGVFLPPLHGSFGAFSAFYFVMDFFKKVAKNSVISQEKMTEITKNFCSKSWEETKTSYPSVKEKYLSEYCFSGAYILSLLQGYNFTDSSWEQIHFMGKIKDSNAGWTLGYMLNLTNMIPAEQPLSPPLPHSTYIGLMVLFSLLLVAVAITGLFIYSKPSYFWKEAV
Experimental: as §1

[4] = target: T4, cynomolgus (macaca fascicularis) CD39 on CHO cells (cynomolgus (macaca fascicularis), UniProt A0A7N9DGH8 1-510); assay: flow cytometry titration on CHO cells expressing cynomolgus CD39 (panel CHO-cyCD39)
T4 construct: whole, on cells; also called CHO-cyCD39; cynomolgus CD39
T4 sequence: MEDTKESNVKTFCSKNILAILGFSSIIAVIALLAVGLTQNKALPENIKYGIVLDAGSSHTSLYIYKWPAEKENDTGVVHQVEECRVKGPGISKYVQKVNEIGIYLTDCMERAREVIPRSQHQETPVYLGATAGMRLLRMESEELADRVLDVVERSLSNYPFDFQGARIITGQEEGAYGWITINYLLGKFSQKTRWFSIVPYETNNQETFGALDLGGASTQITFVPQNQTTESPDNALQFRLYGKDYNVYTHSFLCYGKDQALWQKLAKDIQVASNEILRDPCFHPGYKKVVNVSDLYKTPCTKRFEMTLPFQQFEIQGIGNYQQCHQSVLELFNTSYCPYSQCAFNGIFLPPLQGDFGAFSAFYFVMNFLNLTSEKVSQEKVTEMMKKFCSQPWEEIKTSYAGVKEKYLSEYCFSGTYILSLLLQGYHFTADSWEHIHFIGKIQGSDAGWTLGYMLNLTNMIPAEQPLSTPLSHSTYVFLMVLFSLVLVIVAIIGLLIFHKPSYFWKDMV
Experimental: as §1

binding result [1]: no binding (tested: about 50 µg/ml)
EC50 (read off the curve) [2]: ~0.2 µg/mL
binding result [3]: no binding (tested: about 30 µg/ml)
EC50 (read off the curve) [4]: ~0.4 µg/mL
B1: antibody I-394 (antibody, human IgG1, kappa, V domains shown)
VH: EVQLQQSGPELVKPGASVKMSCKASGYTFTDYNMHWVKQSHGRTLEWIGYIVPLNGGSTFNQKFKGRATLTVNTSSRTAYMELRSLTSEDSAAYYCARGGTRFAYWGQGTLVTVSA
VL: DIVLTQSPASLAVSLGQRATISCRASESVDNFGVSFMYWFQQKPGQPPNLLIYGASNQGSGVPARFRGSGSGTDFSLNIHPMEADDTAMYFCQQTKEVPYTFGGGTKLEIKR
